Laboratory results as given in publication doi:10.1101/2025.09.05.674436 (bioRxiv, 2025).

Legend:
[1] = target: UBE2D3 WT (UniProt P61077 1-147); assay: ITC
[2] = target: the molecule itself; assay: native gel or EMSA
[3] = target: the molecule itself; assay: SDS-PAGE of LDS-resistant high molecular weight species
[4] = target: the molecule itself; assay: semi-denaturing detergent agarose gel electrophoresis

UBE2D3 WT, sequence (P61077 whole entry): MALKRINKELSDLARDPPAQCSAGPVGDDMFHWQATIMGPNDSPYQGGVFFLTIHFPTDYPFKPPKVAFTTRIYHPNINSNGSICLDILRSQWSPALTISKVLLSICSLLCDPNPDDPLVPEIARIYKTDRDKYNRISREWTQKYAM

B1: ZNFX1 Z-RING (residues 1533-1631), wild type (domain or fragment)
chain: RPPCYVPCTKLLVCGHPCIGLCGEPCPKKCRICHMDEVTQIFFGFEDEPDARFVQLEDCSHIFEVQALDRYMNEQKDDEVAIRLKVCPICQVPIRKNLR
Kd [1]: 41 µM
dH [1]: 2.04 kcal/mol

B2: WT-ZNFX1 reconstituted in T-REx-293 ZNFX1 KO cells (enzyme)
chain: MEERRPHLDARPRNSHTNHRGPVDGELPPRARNQANNPPANALRGGASHPGRHPRANNHPAAYWQREERFRAMGRNPHQGRRNQEGHASDEARDQRHDQENDTRWRNGNQDCRNRRPPWSNDNFQQWRTPHQKPTEQPQQAKKLGYKFLESLLQKDPSEVVITLATSLGLKELLSHSSMKSNFLELICQVLRKACSSKMDRQSVLHVLGILKNSKFLKVCLPAYVVGMITEPIPDIRNQYPEHISNIISLLQDLVSVFPASSVQETSMLVSLLPTSLNALRASGVDIEEETEKNLEKVQTIIEHLQEKRREGTLRVDTYTLVQPEAEDHVESYRTMPIYPTYNEVHLDERPFLRPNIISGKYDSTAIYLDTHFRLLREDFVRPLREGILELLQSFEDQGLRKRKFDDIRIYFDTRIITPMCSSSGIVYKVQFDTKPLKFVRWQNSKRLLYGSLVCMSKDNFETFLFATVSNREQEDLCRGIVQLCFNEQSQQLLAEVQPSDSFLMVETTAYFEAYRHVLEGLQEVQEEDVPFQRNIVECNSHVKEPRYLLMGGRYDFTPLIENPSATGEFLRNVEGLRHPRINVLDPGQWPSKEALKLDDSQMEALQFALTRELAIIQGPPGTGKTYVGLKIVQALLTNESVWQISLQKFPILVVCYTNHALDQFLEGIYNCQKTSIVRVGGRSNSEILKQFTLRELRNKREFRRNLPMHLRRAYMSIMTQMKESEQELHEGAKTLECTMRGVLREQYLQKYISPQHWESLMNGPVQDSEWICFQHWKHSMMLEWLGLGVGSFTQSVSPAGPENTAQAEGDEEEEGEEESSLIEIAEEADLIQADRVIEEEEVVRPQRRKKEESGADQELAKMLLAMRLDHCGTGTAAGQEQATGEWQTQRNQKKKMKKRVKDELRKLNTMTAAEANEIEDVWQLDLSSRWQLYRLWLQLYQADTRRKILSYERQYRTSAERMAELRLQEDLHILKDAQVVGMTTTGAAKYRQILQKVEPRIVIVEEAAEVLEAHTIATLSKACQHLILIGDHQQLRPSANVYDLAKNFNLEVSLFERLVKVNIPFVRLNYQHRMCPEIARLLTPHIYQDLENHPSVLKYEKIKGVSSNLFFVEHNFPEQEIQEGKSHQNQHEAHFVVELCKYFLCQEYLPSQITILTTYTGQLFCLRKLMPAKTFAGVRVHVVDKYQGEENDIILLSLVRSNQEGKVGFLQISNRICVALSRAKKGMYCIGNMQMLAKVPLWSKIIHTLRENNQIGPMLRLCCQNHPETHTLVSKASDFQKVPEGGCSLPCEFRLGCGHVCTRACHPYDSSHKEFQCMKPCQKVICQEGHRCPLVCFQECQPCQVKVPKTIPRCGHEQMVPCSVPESDFCCQEPCSKSLRCGHRCSHPCGEDCVQLCSEMVTIKLKCGHSQPVKCGHVEGLLYGGLLVKCTTKCGTILDCGHPCPGSCHSCFEGRFHERCQQPCKRLLICSHKCQEPCIGECPPCQRTCQNRCVHSQCKKKCGELCSPCVEPCVWRCQHYQCTKLCSEPCNRPPCYVPCTKLLVCGHPCIGLCGEPCPKKCRICHMDEVTQIFFGFEDEPDARFVQLEDCSHIFEVQALDRYMNEQKDDEVAIRLKVCPICQVPIRKNLRYGTSIKQRLEEIEIIKEKIQGSAGEIATSQERLKALLERKSLLHQLLPEDFLMLKEKLAQKNLSVKDLGLVENYISFYDHLASLWDSLKKMHVLEEKRVRTRLEQVHEWLAKKRLSFTSQELSDLRSEIQRLTYLVNLLTRYKIAEKKVKDSIAVEVYSVQNILEKTCKFTQEDEQLVQEKMEALKATLPCSGLGISEEERVQIVSAIGYPRGHWFKCRNGHIYVIGDCGGAMERGTCPDCKEVIGGTNHTLERSNQLASEMDGAQHAAWSDTANNLMNFEEIQGMM
stoichiometry N [2]: 2

B3: ZNFX1FL F1210A/R1216A (FARA mutant) (enzyme)
chain: MEERRPHLDARPRNSHTNHRGPVDGELPPRARNQANNPPANALRGGASHPGRHPRANNHPAAYWQREERFRAMGRNPHQGRRNQEGHASDEARDQRHDQENDTRWRNGNQDCRNRRPPWSNDNFQQWRTPHQKPTEQPQQAKKLGYKFLESLLQKDPSEVVITLATSLGLKELLSHSSMKSNFLELICQVLRKACSSKMDRQSVLHVLGILKNSKFLKVCLPAYVVGMITEPIPDIRNQYPEHISNIISLLQDLVSVFPASSVQETSMLVSLLPTSLNALRASGVDIEEETEKNLEKVQTIIEHLQEKRREGTLRVDTYTLVQPEAEDHVESYRTMPIYPTYNEVHLDERPFLRPNIISGKYDSTAIYLDTHFRLLREDFVRPLREGILELLQSFEDQGLRKRKFDDIRIYFDTRIITPMCSSSGIVYKVQFDTKPLKFVRWQNSKRLLYGSLVCMSKDNFETFLFATVSNREQEDLCRGIVQLCFNEQSQQLLAEVQPSDSFLMVETTAYFEAYRHVLEGLQEVQEEDVPFQRNIVECNSHVKEPRYLLMGGRYDFTPLIENPSATGEFLRNVEGLRHPRINVLDPGQWPSKEALKLDDSQMEALQFALTRELAIIQGPPGTGKTYVGLKIVQALLTNESVWQISLQKFPILVVCYTNHALDQFLEGIYNCQKTSIVRVGGRSNSEILKQFTLRELRNKREFRRNLPMHLRRAYMSIMTQMKESEQELHEGAKTLECTMRGVLREQYLQKYISPQHWESLMNGPVQDSEWICFQHWKHSMMLEWLGLGVGSFTQSVSPAGPENTAQAEGDEEEEGEEESSLIEIAEEADLIQADRVIEEEEVVRPQRRKKEESGADQELAKMLLAMRLDHCGTGTAAGQEQATGEWQTQRNQKKKMKKRVKDELRKLNTMTAAEANEIEDVWQLDLSSRWQLYRLWLQLYQADTRRKILSYERQYRTSAERMAELRLQEDLHILKDAQVVGMTTTGAAKYRQILQKVEPRIVIVEEAAEVLEAHTIATLSKACQHLILIGDHQQLRPSANVYDLAKNFNLEVSLFERLVKVNIPFVRLNYQHRMCPEIARLLTPHIYQDLENHPSVLKYEKIKGVSSNLFFVEHNFPEQEIQEGKSHQNQHEAHFVVELCKYFLCQEYLPSQITILTTYTGQLFCLRKLMPAKTFAGVRVHVVDKYQGEENDIILLSLVRSNQEGKVGALQISNAICVALSRAKKGMYCIGNMQMLAKVPLWSKIIHTLRENNQIGPMLRLCCQNHPETHTLVSKASDFQKVPEGGCSLPCEFRLGCGHVCTRACHPYDSSHKEFQCMKPCQKVICQEGHRCPLVCFQECQPCQVKVPKTIPRCGHEQMVPCSVPESDFCCQEPCSKSLRCGHRCSHPCGEDCVQLCSEMVTIKLKCGHSQPVKCGHVEGLLYGGLLVKCTTKCGTILDCGHPCPGSCHSCFEGRFHERCQQPCKRLLICSHKCQEPCIGECPPCQRTCQNRCVHSQCKKKCGELCSPCVEPCVWRCQHYQCTKLCSEPCNRPPCYVPCTKLLVCGHPCIGLCGEPCPKKCRICHMDEVTQIFFGFEDEPDARFVQLEDCSHIFEVQALDRYMNEQKDDEVAIRLKVCPICQVPIRKNLRYGTSIKQRLEEIEIIKEKIQGSAGEIATSQERLKALLERKSLLHQLLPEDFLMLKEKLAQKNLSVKDLGLVENYISFYDHLASLWDSLKKMHVLEEKRVRTRLEQVHEWLAKKRLSFTSQELSDLRSEIQRLTYLVNLLTRYKIAEKKVKDSIAVEVYSVQNILEKTCKFTQEDEQLVQEKMEALKATLPCSGLGISEEERVQIVSAIGYPRGHWFKCRNGHIYVIGDCGGAMERGTCPDCKEVIGGTNHTLERSNQLASEMDGAQHAAWSDTANNLMNFEEIQGMM
binding result [3]: binds

B4: full length ZNFX1 expressed in insect cells (ZNFX1FL) (enzyme)
chain: MEERRPHLDARPRNSHTNHRGPVDGELPPRARNQANNPPANALRGGASHPGRHPRANNHPAAYWQREERFRAMGRNPHQGRRNQEGHASDEARDQRHDQENDTRWRNGNQDCRNRRPPWSNDNFQQWRTPHQKPTEQPQQAKKLGYKFLESLLQKDPSEVVITLATSLGLKELLSHSSMKSNFLELICQVLRKACSSKMDRQSVLHVLGILKNSKFLKVCLPAYVVGMITEPIPDIRNQYPEHISNIISLLQDLVSVFPASSVQETSMLVSLLPTSLNALRASGVDIEEETEKNLEKVQTIIEHLQEKRREGTLRVDTYTLVQPEAEDHVESYRTMPIYPTYNEVHLDERPFLRPNIISGKYDSTAIYLDTHFRLLREDFVRPLREGILELLQSFEDQGLRKRKFDDIRIYFDTRIITPMCSSSGIVYKVQFDTKPLKFVRWQNSKRLLYGSLVCMSKDNFETFLFATVSNREQEDLCRGIVQLCFNEQSQQLLAEVQPSDSFLMVETTAYFEAYRHVLEGLQEVQEEDVPFQRNIVECNSHVKEPRYLLMGGRYDFTPLIENPSATGEFLRNVEGLRHPRINVLDPGQWPSKEALKLDDSQMEALQFALTRELAIIQGPPGTGKTYVGLKIVQALLTNESVWQISLQKFPILVVCYTNHALDQFLEGIYNCQKTSIVRVGGRSNSEILKQFTLRELRNKREFRRNLPMHLRRAYMSIMTQMKESEQELHEGAKTLECTMRGVLREQYLQKYISPQHWESLMNGPVQDSEWICFQHWKHSMMLEWLGLGVGSFTQSVSPAGPENTAQAEGDEEEEGEEESSLIEIAEEADLIQADRVIEEEEVVRPQRRKKEESGADQELAKMLLAMRLDHCGTGTAAGQEQATGEWQTQRNQKKKMKKRVKDELRKLNTMTAAEANEIEDVWQLDLSSRWQLYRLWLQLYQADTRRKILSYERQYRTSAERMAELRLQEDLHILKDAQVVGMTTTGAAKYRQILQKVEPRIVIVEEAAEVLEAHTIATLSKACQHLILIGDHQQLRPSANVYDLAKNFNLEVSLFERLVKVNIPFVRLNYQHRMCPEIARLLTPHIYQDLENHPSVLKYEKIKGVSSNLFFVEHNFPEQEIQEGKSHQNQHEAHFVVELCKYFLCQEYLPSQITILTTYTGQLFCLRKLMPAKTFAGVRVHVVDKYQGEENDIILLSLVRSNQEGKVGFLQISNRICVALSRAKKGMYCIGNMQMLAKVPLWSKIIHTLRENNQIGPMLRLCCQNHPETHTLVSKASDFQKVPEGGCSLPCEFRLGCGHVCTRACHPYDSSHKEFQCMKPCQKVICQEGHRCPLVCFQECQPCQVKVPKTIPRCGHEQMVPCSVPESDFCCQEPCSKSLRCGHRCSHPCGEDCVQLCSEMVTIKLKCGHSQPVKCGHVEGLLYGGLLVKCTTKCGTILDCGHPCPGSCHSCFEGRFHERCQQPCKRLLICSHKCQEPCIGECPPCQRTCQNRCVHSQCKKKCGELCSPCVEPCVWRCQHYQCTKLCSEPCNRPPCYVPCTKLLVCGHPCIGLCGEPCPKKCRICHMDEVTQIFFGFEDEPDARFVQLEDCSHIFEVQALDRYMNEQKDDEVAIRLKVCPICQVPIRKNLRYGTSIKQRLEEIEIIKEKIQGSAGEIATSQERLKALLERKSLLHQLLPEDFLMLKEKLAQKNLSVKDLGLVENYISFYDHLASLWDSLKKMHVLEEKRVRTRLEQVHEWLAKKRLSFTSQELSDLRSEIQRLTYLVNLLTRYKIAEKKVKDSIAVEVYSVQNILEKTCKFTQEDEQLVQEKMEALKATLPCSGLGISEEERVQIVSAIGYPRGHWFKCRNGHIYVIGDCGGAMERGTCPDCKEVIGGTNHTLERSNQLASEMDGAQHAAWSDTANNLMNFEEIQGMM
binding result [4]: binds
